Experimental data reported in patent publication US20150045310A1.
Where no end group is shown, it is not given here. eCPX = enhanced circularly permuted OmpX display scaffold; linker = not defined here

Tests used:
[1] = molecular target: A1 (biotinylated pro-survival Bcl-2 family protein) (UniProt Q16548); experiment: flow cytometry of E. coli displaying the peptide on eCPX, biotinylated target + streptavidin-PE; apparent Kd
[2] = molecular target: A1 (biotinylated pro-survival Bcl-2 family protein) (UniProt Q16548); experiment: apparent Kd, bacterial surface display and flow cytometry

Binder | Kd [1] [nM] | fold affinity improvement against wild-type Bim 14-mer [2] [fold]
WLAQLLRRYGDEFN (peptide, not shown: large carriers; small tags and cut ends, also: displayed as fusion to eCPX scaffold (letters not given here)) [Bim BH3 14-mer variant X2-8 displayed on eCPX] | 40.5 | 
WIAQQLRRIGDEFN (peptide, not shown: large carriers; small tags and cut ends, not fully specified) [Bim BH3 14-mer E151Q (pseudo-wild-type) displayed on eCPX] | 29.6 | 
WIAQELRRIGDEFN-{linker-eCPX} (peptide, not shown: large carriers; small tags and cut ends, reading uncertain) [wild-type Bim BH3 14-mer peptide (residues 147-160) displayed on eCPX] | 26.9 | 
WLAQLLRRIGDEIN-{linker-eCPX} (peptide, not shown: large carriers; small tags and cut ends, reading uncertain; also: printed as Trp-Leu-Ala-Gln-Leu-Leu-Arg-Arg-Ile-Gly-Asp-Glu-Ile-Asn) [Bim BH3 14-mer variant M2-4 displayed on eCPX] | 4.18 | 6
WVAQWLRRWGDEFN (peptide, not shown: large carriers; small tags and cut ends, also: displayed as fusion to eCPX scaffold (letters not given here)) [Bim BH3 14-mer variant X2-3 displayed on eCPX] | 30.2 | 
WVAQLLRRIGDEVN-{linker-eCPX} (peptide, not shown: large carriers; small tags and cut ends, reading uncertain; also: printed as Trp-Val-Ala-Gln-Leu-Leu-Arg-Arg-Ile-Gly-Asp-Glu-Val-Asn) [Bim BH3 14-mer variant M2-2 displayed on eCPX] | 9.99 | 3
